Test results reported in the supplement of paper PMC9112550, “Optimization of the antimicrobial peptide Bac7 by deep mutational scanning” (BMC Biology, 2022).

system: Escherichia coli TOP10; experiment: shrunken log2 fold change of peptide-encoding DNA abundance (4.5 h post-induction vs induction); higher = less antimicrobial activity (less host growth inhibition); conditions: time post-induction: 4.5 h; library: site-saturation at positions 5, 18, 19, 20
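Note: peptides expressed intracellularly from a pBAD plasmid library in pooled LB shake-flask culture, induced with 0.3% L-arabinose, DNA abundance read by NGS, three biological replicates, DESeq2 with apeglm shrinkage.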

Question: With RRIRHRPPRLPRPRPRPMRSPRP as the sequence, how does the “shrunken log2 fold change” value read?
Answer: -0.00134

Question: Which “shrunken log2 fold change” value does the source give for RRIRNRPPRLPRPRPRPCWYPRP here?
Answer: -0.0865

Question: Which “shrunken log2 fold change” value does the source give for RRIRIRPPRLPRPRPRPADDPRP here?
Answer: -0.062

Question: How did the “shrunken log2 fold change” value turn out when RRIRYRPPRLPRPRPRPTKNPRP was run?
Answer: -0.495

Question: RRIRLRPPRLPRPRPRPSGKPRP was tested. Which “shrunken log2 fold change” value did it give?
Answer: 0.19

Question: For RRIRGRPPRLPRPRPRPYGHPRP, which “shrunken log2 fold change” value is on record?
Answer: 0.323

Question: How did the “shrunken log2 fold change” value turn out when RRIRARPPRLPRPRPRPWKVPRP was run?
Answer: -0.279

Question: RRIRCRPPRLPRPRPRPLEDPRP was tested. Which “shrunken log2 fold change” value did it give?
Answer: 0.0306

Question: Which “shrunken log2 fold change” value does the source give for RRIRYRPPRLPRPRPRPPLFPRP here?
Answer: -0.0411

Question: Which “shrunken log2 fold change” value does the source give for RRIRSRPPRLPRPRPRPRCMPRP here?
Answer: -0.0959

Question: How did the “shrunken log2 fold change” value turn out when RRIRNRPPRLPRPRPRPGYFPRP was run?
Answer: -0.541

Question: Which “shrunken log2 fold change” value does the source give for RRIRYRPPRLPRPRPRPMQQPRP here?
Answer: -0.0118

Question: With RRIRYRPPRLPRPRPRPVLHPRP as the sequence, how does the “shrunken log2 fold change” value read?
Answer: -0.5

Question: Which “shrunken log2 fold change” value does the source give for RRIRWRPPRLPRPRPRPMGVPRP here?
Answer: -0.00743

Question: For RRIRARPPRLPRPRPRPYFAPRP, which “shrunken log2 fold change” value is on record?
Answer: -0.201

Question: Which “shrunken log2 fold change” value does the source give for RRIRVRPPRLPRPRPRPEQGPRP here?
Answer: 0.0379

Question: For RRIRFRPPRLPRPRPRPGWCPRP, which “shrunken log2 fold change” value is on record?
Answer: 0.109

Question: For RRIRERPPRLPRPRPRPWHIPRP, which “shrunken log2 fold change” value is on record?
Answer: -0.169

Question: How did the “shrunken log2 fold change” value turn out when RRIRVRPPRLPRPRPRPPTIPRP was run?
Answer: 0.0741

Question: With RRIRPRPPRLPRPRPRPFINPRP as the sequence, how does the “shrunken log2 fold change” value read?
Answer: -0.382

Question: With RRIRPRPPRLPRPRPRPACGPRP as the sequence, how does the “shrunken log2 fold change” value read?
Answer: 0.839

Question: With RRIRHRPPRLPRPRPRPAHTPRP as the sequence, how does the “shrunken log2 fold change” value read?
Answer: -0.199

Question: With RRIRPRPPRLPRPRPRPQIQPRP as the sequence, how does the “shrunken log2 fold change” value read?
Answer: -0.286

Question: How did the “shrunken log2 fold change” value turn out when RRIRGRPPRLPRPRPRPPYGPRP was run?
Answer: 0.341

Question: With RRIRHRPPRLPRPRPRPNMAPRP as the sequence, how does the “shrunken log2 fold change” value read?
Answer: -0.0808

Question: With RRIRSRPPRLPRPRPRPNHKPRP as the sequence, how does the “shrunken log2 fold change” value read?
Answer: -0.738

Question: Which “shrunken log2 fold change” value does the source give for RRIRSRPPRLPRPRPRPVNPPRP here?
Answer: -0.118

Question: How did the “shrunken log2 fold change” value turn out when RRIRYRPPRLPRPRPRPLCWPRP was run?
Answer: -0.264

Question: Which “shrunken log2 fold change” value does the source give for RRIRIRPPRLPRPRPRPNKHPRP here?
Answer: -0.727

Question: With RRIRDRPPRLPRPRPRPFVDPRP as the sequence, how does the “shrunken log2 fold change” value read?
Answer: 0.063

Question: With RRIRFRPPRLPRPRPRPGQCPRP as the sequence, how does the “shrunken log2 fold change” value read?
Answer: -0.114

Question: Which “shrunken log2 fold change” value does the source give for RRIRNRPPRLPRPRPRPATTPRP here?
Answer: 0.272

Question: With RRIRMRPPRLPRPRPRPECPPRP as the sequence, how does the “shrunken log2 fold change” value read?
Answer: 0.43

Question: RRIRCRPPRLPRPRPRPFWMPRP was tested. Which “shrunken log2 fold change” value did it give?
Answer: -0.176

Question: For RRIRCRPPRLPRPRPRPMITPRP, which “shrunken log2 fold change” value is on record?
Answer: -0.0256

Question: RRIRVRPPRLPRPRPRPAYPPRP was tested. Which “shrunken log2 fold change” value did it give?
Answer: -0.179

Question: For RRIRQRPPRLPRPRPRPSIIPRP, which “shrunken log2 fold change” value is on record?
Answer: -0.63

Question: How did the “shrunken log2 fold change” value turn out when RRIRKRPPRLPRPRPRPDVSPRP was run?
Answer: -0.382

Question: RRIRHRPPRLPRPRPRPYFFPRP was tested. Which “shrunken log2 fold change” value did it give?
Answer: -0.485

Question: With RRIRRRPPRLPRPRPRPPANPRP as the sequence, how does the “shrunken log2 fold change” value read?
Answer: 0.731

Question: How did the “shrunken log2 fold change” value turn out when RRIRGRPPRLPRPRPRPMNMPRP was run?
Answer: -0.318

Question: With RRIRERPPRLPRPRPRPTFDPRP as the sequence, how does the “shrunken log2 fold change” value read?
Answer: -0.066

Question: Which “shrunken log2 fold change” value does the source give for RRIRHRPPRLPRPRPRPVVFPRP here?
Answer: -0.147

Question: For RRIRPRPPRLPRPRPRPQKLPRP, which “shrunken log2 fold change” value is on record?
Answer: -0.0225

Question: With RRIRNRPPRLPRPRPRPEHEPRP as the sequence, how does the “shrunken log2 fold change” value read?
Answer: 0.127

Question: For RRIRFRPPRLPRPRPRPSVLPRP, which “shrunken log2 fold change” value is on record?
Answer: -0.246

Question: Which “shrunken log2 fold change” value does the source give for RRIRFRPPRLPRPRPRPNITPRP here?
Answer: -0.633

Question: Which “shrunken log2 fold change” value does the source give for RRIRARPPRLPRPRPRPYQDPRP here?
Answer: -0.00221

Question: With RRIRSRPPRLPRPRPRPKYQPRP as the sequence, how does the “shrunken log2 fold change” value read?
Answer: -0.157

Question: How did the “shrunken log2 fold change” value turn out when RRIRARPPRLPRPRPRPNTIPRP was run?
Answer: -0.0317

Question: With RRIRGRPPRLPRPRPRPAWHPRP as the sequence, how does the “shrunken log2 fold change” value read?
Answer: 0.521

Question: For RRIRERPPRLPRPRPRPPQFPRP, which “shrunken log2 fold change” value is on record?
Answer: -0.151

Question: How did the “shrunken log2 fold change” value turn out when RRIRLRPPRLPRPRPRPVSEPRP was run?
Answer: 0.172

Question: RRIRLRPPRLPRPRPRPYECPRP was tested. Which “shrunken log2 fold change” value did it give?
Answer: -0.352

Question: Which “shrunken log2 fold change” value does the source give for RRIRERPPRLPRPRPRPPRIPRP here?
Answer: -0.453

Question: With RRIRWRPPRLPRPRPRPYQFPRP as the sequence, how does the “shrunken log2 fold change” value read?
Answer: -0.00205

Question: RRIRMRPPRLPRPRPRPPQCPRP was tested. Which “shrunken log2 fold change” value did it give?
Answer: 0.566

Question: Which “shrunken log2 fold change” value does the source give for RRIRARPPRLPRPRPRPRLRPRP here?
Answer: 0.514

Question: RRIRKRPPRLPRPRPRPDHTPRP was tested. Which “shrunken log2 fold change” value did it give?
Answer: 0.0503

Question: RRIRGRPPRLPRPRPRPQLWPRP was tested. Which “shrunken log2 fold change” value did it give?
Answer: 0.928

Question: With RRIRVRPPRLPRPRPRPPKAPRP as the sequence, how does the “shrunken log2 fold change” value read?
Answer: 0.077

Question: RRIRSRPPRLPRPRPRPYVSPRP was tested. Which “shrunken log2 fold change” value did it give?
Answer: -0.136

Question: For RRIRIRPPRLPRPRPRPQQEPRP, which “shrunken log2 fold change” value is on record?
Answer: -0.056

Question: RRIRCRPPRLPRPRPRPQYQPRP was tested. Which “shrunken log2 fold change” value did it give?
Answer: -0.697

Question: How did the “shrunken log2 fold change” value turn out when RRIRMRPPRLPRPRPRPVCCPRP was run?
Answer: 0.496

Question: RRIRHRPPRLPRPRPRPRDMPRP was tested. Which “shrunken log2 fold change” value did it give?
Answer: 0.137

Question: RRIRGRPPRLPRPRPRPWATPRP was tested. Which “shrunken log2 fold change” value did it give?
Answer: 0.959

Question: RRIRKRPPRLPRPRPRPTSNPRP was tested. Which “shrunken log2 fold change” value did it give?
Answer: 0.161

Question: How did the “shrunken log2 fold change” value turn out when RRIRRRPPRLPRPRPRPDPCPRP was run?
Answer: -0.00607

Question: Which “shrunken log2 fold change” value does the source give for RRIRIRPPRLPRPRPRPMDDPRP here?
Answer: 0.0135

Question: With RRIRTRPPRLPRPRPRPGLSPRP as the sequence, how does the “shrunken log2 fold change” value read?
Answer: 0.0345

Question: For RRIRKRPPRLPRPRPRPTFEPRP, which “shrunken log2 fold change” value is on record?
Answer: 0.312

Question: RRIRERPPRLPRPRPRPCPYPRP was tested. Which “shrunken log2 fold change” value did it give?
Answer: -0.367

Question: With RRIRIRPPRLPRPRPRPQDNPRP as the sequence, how does the “shrunken log2 fold change” value read?
Answer: -0.954

Question: RRIRRRPPRLPRPRPRPYYKPRP was tested. Which “shrunken log2 fold change” value did it give?
Answer: -0.677
